Measured values as given in paper PMC11229321 (Nucleic Acids Research, 2024).
Blank lines part the entries; values can stand above or below the molecule they belong to.

Experiments:
[1] = molecular target: YejK(Δ134–147) (E. coli) (UniProt P33920); experiment: SEC
[2] = molecular target: the molecule itself; experiment: SEC
[3] = molecular target: the molecule itself; experiment: cross-linking
[4] = molecular target: T1, YejK (Escherichia coli, UniProt P33920 1-335); experiment: fluorescence polarization
T1 sequence: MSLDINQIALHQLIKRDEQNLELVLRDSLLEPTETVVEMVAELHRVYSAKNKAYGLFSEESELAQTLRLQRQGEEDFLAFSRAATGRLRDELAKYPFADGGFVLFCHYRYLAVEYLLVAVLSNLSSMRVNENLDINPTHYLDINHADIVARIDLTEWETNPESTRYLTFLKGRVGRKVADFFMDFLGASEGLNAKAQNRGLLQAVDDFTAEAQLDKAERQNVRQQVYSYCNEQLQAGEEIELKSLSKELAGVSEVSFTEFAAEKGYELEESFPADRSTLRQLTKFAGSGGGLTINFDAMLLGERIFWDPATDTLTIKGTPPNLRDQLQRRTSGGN

[5] = molecular target: T2, YejK(R276A-R280A-K284A) (Escherichia coli, UniProt P33920 1-335, R276A;R280A;K284A); experiment: fluorescence polarization
T2 sequence: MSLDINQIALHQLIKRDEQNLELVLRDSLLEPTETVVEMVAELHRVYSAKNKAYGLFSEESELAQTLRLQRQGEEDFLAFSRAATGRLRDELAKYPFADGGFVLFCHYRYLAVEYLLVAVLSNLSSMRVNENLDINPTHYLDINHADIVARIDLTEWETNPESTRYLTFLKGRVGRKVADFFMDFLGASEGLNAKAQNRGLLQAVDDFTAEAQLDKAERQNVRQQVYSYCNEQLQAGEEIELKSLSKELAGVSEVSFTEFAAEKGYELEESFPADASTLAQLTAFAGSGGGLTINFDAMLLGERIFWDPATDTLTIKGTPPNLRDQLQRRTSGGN

[6] = molecular target: T3, YejK C-trunc, YejK(1-290) (Escherichia coli, UniProt P33920 1-290, del291-335); experiment: fluorescence polarization
T3 sequence: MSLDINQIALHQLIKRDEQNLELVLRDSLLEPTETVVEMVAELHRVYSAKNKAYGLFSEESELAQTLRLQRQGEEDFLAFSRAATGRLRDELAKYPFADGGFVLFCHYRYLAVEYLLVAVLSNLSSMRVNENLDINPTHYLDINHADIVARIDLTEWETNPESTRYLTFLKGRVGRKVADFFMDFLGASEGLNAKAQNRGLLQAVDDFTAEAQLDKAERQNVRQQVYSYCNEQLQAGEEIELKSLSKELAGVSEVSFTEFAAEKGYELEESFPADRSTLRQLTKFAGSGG

- stoichiometry N [1]: 2
Molecule: YejK(Δ134–147) (from UniProt P33920 1-335) (natural protein)

B1: E. coli YejK protein (WT) (natural protein, UniProt P33920 1-335, looked up)
chain: MSLDINQIALHQLIKRDEQNLELVLRDSLLEPTETVVEMVAELHRVYSAKNKAYGLFSEESELAQTLRLQRQGEEDFLAFSRAATGRLRDELAKYPFADGGFVLFCHYRYLAVEYLLVAVLSNLSSMRVNENLDINPTHYLDINHADIVARIDLTEWETNPESTRYLTFLKGRVGRKVADFFMDFLGASEGLNAKAQNRGLLQAVDDFTAEAQLDKAERQNVRQQVYSYCNEQLQAGEEIELKSLSKELAGVSEVSFTEFAAEKGYELEESFPADRSTLRQLTKFAGSGGGLTINFDAMLLGERIFWDPATDTLTIKGTPPNLRDQLQRRTSGGN
- stoichiometry N [2]: 2

B2: YejK(R173A-R176A-K177A) (natural protein, E. coli, UniProt P33920 1-335, looked up)
chain: MSLDINQIALHQLIKRDEQNLELVLRDSLLEPTETVVEMVAELHRVYSAKNKAYGLFSEESELAQTLRLQRQGEEDFLAFSRAATGRLRDELAKYPFADGGFVLFCHYRYLAVEYLLVAVLSNLSSMRVNENLDINPTHYLDINHADIVARIDLTEWETNPESTRYLTFLKGAVGAAVADFFMDFLGASEGLNAKAQNRGLLQAVDDFTAEAQLDKAERQNVRQQVYSYCNEQLQAGEEIELKSLSKELAGVSEVSFTEFAAEKGYELEESFPADRSTLRQLTKFAGSGGGLTINFDAMLLGERIFWDPATDTLTIKGTPPNLRDQLQRRTSGGN
- stoichiometry N [3]: 2

B3: YejK(R276A-R280A-K284A) (natural protein, E. coli, UniProt P33920 1-335, looked up)
chain: MSLDINQIALHQLIKRDEQNLELVLRDSLLEPTETVVEMVAELHRVYSAKNKAYGLFSEESELAQTLRLQRQGEEDFLAFSRAATGRLRDELAKYPFADGGFVLFCHYRYLAVEYLLVAVLSNLSSMRVNENLDINPTHYLDINHADIVARIDLTEWETNPESTRYLTFLKGRVGRKVADFFMDFLGASEGLNAKAQNRGLLQAVDDFTAEAQLDKAERQNVRQQVYSYCNEQLQAGEEIELKSLSKELAGVSEVSFTEFAAEKGYELEESFPADASTLAQLTAFAGSGGGLTINFDAMLLGERIFWDPATDTLTIKGTPPNLRDQLQRRTSGGN
- stoichiometry N [3]: 2

B4: AT-rich 20-mer (dsDNA)
DNA 1: ATTATTAATTAATTAATAAT
DNA 2: ATTATTAATTAATTAATAAT
- Kd [4]: 6.8 ± 0.5 µM
- Kd [5]: 40 ± 5.6 µM
- binding result [6]: no binding
